The record followed here is publication PMC10328973.

The target in experiment [1] is UKNP5.2.1 E2E1-I53-50A trimer (permuted HCV envelope glycoprotein, genotype 5) (hepatitis C virus, strain UKNP5.2.1 (genotype 5)).
The target in experiment [2] is UKNP2.2.1 E2E1-I53-50A trimer. Description: ELISA. The note with it: read off a plot. A general note: ELISA stands for enzyme-linked immunosorbent assay.
For experiment [3], the target named is UKNP5.2.1 E2E1-I53-50A trimer. The experiment can be described thus: ELISA. The following applies: read off a plot.

AR3C (mature bNAb, IgG) (antibody) registered a Supplementary Figure 7b: IC50 of neutralization of UKNP5.2.1 HCVpp (% infectivity, serial dilution of IgG), AR3C IgG in experiment [1] of 0.07 µg/mL.
On to HEPC3 (mature bNAb, IgG) (antibody), for which the Supplementary Figure 7b: IC50 of neutralization of UKNP5.2.1 HCVpp (% infectivity, serial dilution of IgG), HEPC3 IgG in experiment [1] amounted to 0.14 µg/mL.
Turning to gl-AR3A F54L, the other: AUC was found to be 0.001 in experiment [2] (parent: est. 0.001) and 1.4 in experiment [3] (parent: est. 3.4).
Regarding gl-AR3A F54L; G50R, the other: AUC in experiment [2] (parent: est. 0.001) and in experiment [3] (parent: est. 3.4) was 0.001 in each case.
Turning to gl-AR3A G50R, the other: AUC in experiment [2] (parent: est. 0.001) and in experiment [3] (parent: est. 3.4) was 0.001 in each case.
Regarding gl-AR3C F54L, the other: AUC in experiment [2] (parent: est. 2.1) was found to be 18; in experiment [3] (parent: est. 0.65), 4.8.
For gl-AR3C F54L; G50R, the other: AUC in experiment [2] (parent: est. 2.1) and in experiment [3] (parent: est. 0.65) was 0.001 in each case.
With gl-AR3C G50R, the other: AUC in experiment [2] (parent: est. 2.1) and in experiment [3] (parent: est. 0.65) was 0.001 in each case.
gl-HEPC74 F54L: the other: AUC in experiment [2] (parent: est. 1.0) is 1.9; in experiment [3] (parent: est. 0.010) it was 0.03.
Taken in the same sequence, the figures for gl-HEPC74 F54L; G50R were 12 and 0.11.
With gl-HEPC74 G50R, the other: AUC turned out to be 7.4 in experiment [2] (parent: est. 1.0) and 0.04 in experiment [3] (parent: est. 0.010).
